“And” between values parts separate entries of the source, which are not always exact repeats. Equal values may be shown once.
How the values were obtained:
[1] = Relative enzymatic activity of GLD (DCIP/1-m-PMS, plate reader, yeast culture supernatant) with 1,10-phenanthroline present; type: biochemical; details: site-specific mutants, inhibitor final concentration 1 mM
In short: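 Inhibitor at 1 mM final substitutes for the methanol in the reagent, and the sample rate is expressed as % of the inhibitor-free blank. Rates come from ΔA600/min of DCIP with glucose and 1-m-PMS at pH 7.0, using supernatants of YPD-grown yeast clones (24 h, 30° C.).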

[2] = Relative enzymatic activity of GLD (DCIP/1-m-PMS, plate reader, yeast culture supernatant) with proflavin hydrochloride present; type: biochemical; details: site-specific mutants, inhibitor final concentration 1 mM
In short: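 Culture supernatant diluted and mixed with reagent of phosphate buffer pH 7.0, 1.0 M D-glucose, 3 mM DCIP, 3 mM 1-m-PMS and methanol (0.1:1:0.14:0.2:0.06). DCIP absorbance decrease at 600 nm followed; proflavin hydrochloride in methanol replaced methanol at 1 mM final. Activity expressed as % of inhibitor-free blank.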

Row | Molecule | Relative Activity [%] 1,10-Phenanthroline [1] | Relative Activity [%] Proflavin hydrochloride [2]
1 | K354E: modified GLD: SEQ ID NO: 1 with substitution K354E (protein, listed as Aspergillus terreus, SIGNAL (1)..(19)) MLGKLSFLSALSLAVAAPLSNSTSAKYDYIVIGGGTSGLAVANRLSEDPNVNVLILEAGGSVWNNPNVTNVDGYGLAFGSDIDWQYQSVNQPYGGNLSQVLRAGKALGGTSTINGMAYTRAEDVQIDAWETIGNTGWTWKNLFPYYRKSENFTVPTKSQTSLGASYEAGAHGHEGPLDVAFTQIESNNLTTYLNRTFQGMGLPWTEDVNGGKMRGFNLYPSTVNLEEYVREDAARAYYWPYKSRPNLHVLLNTFANRIVWDGEAHDGHITASGVEITSRNGTVRVINAEKEVIVSAGALKSPAILELSGIGNPSVLDKHNIPVKVNLPTVGENLQDQVNSHMDASGNTSISGTEAVSYPDVYDVFGDEAESVAKQIRANLKQYAADTAKANGNIMKAADLERLFEVQYDLIFKGRVPIAEVLNYPGSATSVFAEFWALLPFARGSVHIGSSNPAEFPVINPNYFMLDWDAKSYVAVAKYIRRSFESYPLSSIVKESTPGYDVIPRNASEQSWKEWVFDKNYRSNFHPVGTAAMMPREIGGVVDERLNVYGTTNVRVVDASVLPFQVCGHLVSTLYAVAERAADLIKADAGRR | 60.0% | 20.7%
2 | K354F: modified GLD: SEQ ID NO: 1 with substitution K354F (protein, listed as Aspergillus terreus, SIGNAL (1)..(19)) MLGKLSFLSALSLAVAAPLSNSTSAKYDYIVIGGGTSGLAVANRLSEDPNVNVLILEAGGSVWNNPNVTNVDGYGLAFGSDIDWQYQSVNQPYGGNLSQVLRAGKALGGTSTINGMAYTRAEDVQIDAWETIGNTGWTWKNLFPYYRKSENFTVPTKSQTSLGASYEAGAHGHEGPLDVAFTQIESNNLTTYLNRTFQGMGLPWTEDVNGGKMRGFNLYPSTVNLEEYVREDAARAYYWPYKSRPNLHVLLNTFANRIVWDGEAHDGHITASGVEITSRNGTVRVINAEKEVIVSAGALKSPAILELSGIGNPSVLDKHNIPVKVNLPTVGENLQDQVNSHMDASGNTSISGTFAVSYPDVYDVFGDEAESVAKQIRANLKQYAADTAKANGNIMKAADLERLFEVQYDLIFKGRVPIAEVLNYPGSATSVFAEFWALLPFARGSVHIGSSNPAEFPVINPNYFMLDWDAKSYVAVAKYIRRSFESYPLSSIVKESTPGYDVIPRNASEQSWKEWVFDKNYRSNFHPVGTAAMMPREIGGVVDERLNVYGTTNVRVVDASVLPFQVCGHLVSTLYAVAERAADLIKADAGRR | 47.8% | 16.0%
3 | K354G: modified GLD: SEQ ID NO: 1 with substitution K354G (protein, listed as Aspergillus terreus, SIGNAL (1)..(19)) MLGKLSFLSALSLAVAAPLSNSTSAKYDYIVIGGGTSGLAVANRLSEDPNVNVLILEAGGSVWNNPNVTNVDGYGLAFGSDIDWQYQSVNQPYGGNLSQVLRAGKALGGTSTINGMAYTRAEDVQIDAWETIGNTGWTWKNLFPYYRKSENFTVPTKSQTSLGASYEAGAHGHEGPLDVAFTQIESNNLTTYLNRTFQGMGLPWTEDVNGGKMRGFNLYPSTVNLEEYVREDAARAYYWPYKSRPNLHVLLNTFANRIVWDGEAHDGHITASGVEITSRNGTVRVINAEKEVIVSAGALKSPAILELSGIGNPSVLDKHNIPVKVNLPTVGENLQDQVNSHMDASGNTSISGTGAVSYPDVYDVFGDEAESVAKQIRANLKQYAADTAKANGNIMKAADLERLFEVQYDLIFKGRVPIAEVLNYPGSATSVFAEFWALLPFARGSVHIGSSNPAEFPVINPNYFMLDWDAKSYVAVAKYIRRSFESYPLSSIVKESTPGYDVIPRNASEQSWKEWVFDKNYRSNFHPVGTAAMMPREIGGVVDERLNVYGTTNVRVVDASVLPFQVCGHLVSTLYAVAERAADLIKADAGRR | 60.8% | 23.0%
4 | K354H: modified GLD: SEQ ID NO: 1 with substitution K354H (protein, listed as Aspergillus terreus, SIGNAL (1)..(19)) MLGKLSFLSALSLAVAAPLSNSTSAKYDYIVIGGGTSGLAVANRLSEDPNVNVLILEAGGSVWNNPNVTNVDGYGLAFGSDIDWQYQSVNQPYGGNLSQVLRAGKALGGTSTINGMAYTRAEDVQIDAWETIGNTGWTWKNLFPYYRKSENFTVPTKSQTSLGASYEAGAHGHEGPLDVAFTQIESNNLTTYLNRTFQGMGLPWTEDVNGGKMRGFNLYPSTVNLEEYVREDAARAYYWPYKSRPNLHVLLNTFANRIVWDGEAHDGHITASGVEITSRNGTVRVINAEKEVIVSAGALKSPAILELSGIGNPSVLDKHNIPVKVNLPTVGENLQDQVNSHMDASGNTSISGTHAVSYPDVYDVFGDEAESVAKQIRANLKQYAADTAKANGNIMKAADLERLFEVQYDLIFKGRVPIAEVLNYPGSATSVFAEFWALLPFARGSVHIGSSNPAEFPVINPNYFMLDWDAKSYVAVAKYIRRSFESYPLSSIVKESTPGYDVIPRNASEQSWKEWVFDKNYRSNFHPVGTAAMMPREIGGVVDERLNVYGTTNVRVVDASVLPFQVCGHLVSTLYAVAERAADLIKADAGRR | 52.6% and 51.0% | 11.1% and 11.6%
5 | K354Q: modified GLD: SEQ ID NO: 1 with substitution K354Q (protein, listed as Aspergillus terreus, SIGNAL (1)..(19)) MLGKLSFLSALSLAVAAPLSNSTSAKYDYIVIGGGTSGLAVANRLSEDPNVNVLILEAGGSVWNNPNVTNVDGYGLAFGSDIDWQYQSVNQPYGGNLSQVLRAGKALGGTSTINGMAYTRAEDVQIDAWETIGNTGWTWKNLFPYYRKSENFTVPTKSQTSLGASYEAGAHGHEGPLDVAFTQIESNNLTTYLNRTFQGMGLPWTEDVNGGKMRGFNLYPSTVNLEEYVREDAARAYYWPYKSRPNLHVLLNTFANRIVWDGEAHDGHITASGVEITSRNGTVRVINAEKEVIVSAGALKSPAILELSGIGNPSVLDKHNIPVKVNLPTVGENLQDQVNSHMDASGNTSISGTQAVSYPDVYDVFGDEAESVAKQIRANLKQYAADTAKANGNIMKAADLERLFEVQYDLIFKGRVPIAEVLNYPGSATSVFAEFWALLPFARGSVHIGSSNPAEFPVINPNYFMLDWDAKSYVAVAKYIRRSFESYPLSSIVKESTPGYDVIPRNASEQSWKEWVFDKNYRSNFHPVGTAAMMPREIGGVVDERLNVYGTTNVRVVDASVLPFQVCGHLVSTLYAVAERAADLIKADAGRR | 71.4% | 12.5%
6 | K354M: modified GLD: SEQ ID NO: 1 with substitution K354M (protein, listed as Aspergillus terreus, SIGNAL (1)..(19)) MLGKLSFLSALSLAVAAPLSNSTSAKYDYIVIGGGTSGLAVANRLSEDPNVNVLILEAGGSVWNNPNVTNVDGYGLAFGSDIDWQYQSVNQPYGGNLSQVLRAGKALGGTSTINGMAYTRAEDVQIDAWETIGNTGWTWKNLFPYYRKSENFTVPTKSQTSLGASYEAGAHGHEGPLDVAFTQIESNNLTTYLNRTFQGMGLPWTEDVNGGKMRGFNLYPSTVNLEEYVREDAARAYYWPYKSRPNLHVLLNTFANRIVWDGEAHDGHITASGVEITSRNGTVRVINAEKEVIVSAGALKSPAILELSGIGNPSVLDKHNIPVKVNLPTVGENLQDQVNSHMDASGNTSISGTMAVSYPDVYDVFGDEAESVAKQIRANLKQYAADTAKANGNIMKAADLERLFEVQYDLIFKGRVPIAEVLNYPGSATSVFAEFWALLPFARGSVHIGSSNPAEFPVINPNYFMLDWDAKSYVAVAKYIRRSFESYPLSSIVKESTPGYDVIPRNASEQSWKEWVFDKNYRSNFHPVGTAAMMPREIGGVVDERLNVYGTTNVRVVDASVLPFQVCGHLVSTLYAVAERAADLIKADAGRR | 53.5% | 10.7%
7 | K354P: modified GLD: SEQ ID NO: 1 with substitution K354P (protein, listed as Aspergillus terreus, SIGNAL (1)..(19)) MLGKLSFLSALSLAVAAPLSNSTSAKYDYIVIGGGTSGLAVANRLSEDPNVNVLILEAGGSVWNNPNVTNVDGYGLAFGSDIDWQYQSVNQPYGGNLSQVLRAGKALGGTSTINGMAYTRAEDVQIDAWETIGNTGWTWKNLFPYYRKSENFTVPTKSQTSLGASYEAGAHGHEGPLDVAFTQIESNNLTTYLNRTFQGMGLPWTEDVNGGKMRGFNLYPSTVNLEEYVREDAARAYYWPYKSRPNLHVLLNTFANRIVWDGEAHDGHITASGVEITSRNGTVRVINAEKEVIVSAGALKSPAILELSGIGNPSVLDKHNIPVKVNLPTVGENLQDQVNSHMDASGNTSISGTPAVSYPDVYDVFGDEAESVAKQIRANLKQYAADTAKANGNIMKAADLERLFEVQYDLIFKGRVPIAEVLNYPGSATSVFAEFWALLPFARGSVHIGSSNPAEFPVINPNYFMLDWDAKSYVAVAKYIRRSFESYPLSSIVKESTPGYDVIPRNASEQSWKEWVFDKNYRSNFHPVGTAAMMPREIGGVVDERLNVYGTTNVRVVDASVLPFQVCGHLVSTLYAVAERAADLIKADAGRR | 64.3% | 16.7%
8 | K354N: modified GLD: SEQ ID NO: 1 with substitution K354N (protein, listed as Aspergillus terreus, SIGNAL (1)..(19)) MLGKLSFLSALSLAVAAPLSNSTSAKYDYIVIGGGTSGLAVANRLSEDPNVNVLILEAGGSVWNNPNVTNVDGYGLAFGSDIDWQYQSVNQPYGGNLSQVLRAGKALGGTSTINGMAYTRAEDVQIDAWETIGNTGWTWKNLFPYYRKSENFTVPTKSQTSLGASYEAGAHGHEGPLDVAFTQIESNNLTTYLNRTFQGMGLPWTEDVNGGKMRGFNLYPSTVNLEEYVREDAARAYYWPYKSRPNLHVLLNTFANRIVWDGEAHDGHITASGVEITSRNGTVRVINAEKEVIVSAGALKSPAILELSGIGNPSVLDKHNIPVKVNLPTVGENLQDQVNSHMDASGNTSISGTNAVSYPDVYDVFGDEAESVAKQIRANLKQYAADTAKANGNIMKAADLERLFEVQYDLIFKGRVPIAEVLNYPGSATSVFAEFWALLPFARGSVHIGSSNPAEFPVINPNYFMLDWDAKSYVAVAKYIRRSFESYPLSSIVKESTPGYDVIPRNASEQSWKEWVFDKNYRSNFHPVGTAAMMPREIGGVVDERLNVYGTTNVRVVDASVLPFQVCGHLVSTLYAVAERAADLIKADAGRR | 61.9% | 15.1%
